Reference: the supplement of paper PMC10567573

B1: SETD8 (parent)
chain: GKQAPRKKAQGKTQQNRKLTDFYP

Variants of: B1
Test: protein stability index of a GFP-peptide fusion (GPS, HEK-293T) (PSI 1-6); higher = more stable
Settings: c terminus: a fixed tail appended
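Note: lentivirally expressed fusions sorted by FACS into six bins by GFP to DsRed ratio, PSI derived from sequencing read proportions per bin multiplied by bin number.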

Variant | protein stability index
GKQAPRKKAQGKTQQNRDLTDFYP | 4.87
GKQAPRKKAQGKTQQNRHLTDFYP | 2.69
GKQAPRKKAQGKTQQNRCLTDFYP | 2.89
GKQAPRKKAQGKTQQNRALTDFYP | 3.15
GKQAPRKKAQGKTQQNRELTDFYP | 3.2
GKQAPRKKAQGKTQQNRFLTDFYP | 3.85
GKQAPRKKAQGKTQQNRILTDFYP | 4.29
GKQAPRKKAYGKTQQNRKLTDFYP | 3.22
GKQAPRKKAWGKTQQNRKLTDFYP | 2.08
GKQAPRKKAQGKTQQSRKLTDFYP | 4.04
GKQAPRKKAQGKTQQIRKLTDFYP | 3.13
GKQAPRKKAQGKTQQMRKLTDFYP | 3.37
GKQAPRKKAQGKTQQERKLTDFYP | 3.65
GKQAPRKKAQGKTQQYRKLTDFYP | 1.96
GKQAPRKKAQGKTQQVRKLTDFYP | 3.57
GKQAPRKKAQGKTQQTRKLTDFYP | 2.53
GKQAPRKKAQGKTQQFRKLTDFYP | 2.68
GKQAPRKKAQGKTQQARKLTDFYP | 3.02
GKQAPRKKAQGKTQQKRKLTDFYP | 2.91
GKQAPRKKAQGKTQQPRKLTDFYP | 2.45
GKQAPRKKAQGKTSQNRKLTDFYP | 1.89
GKQAPRKKAQGKTVQNRKLTDFYP | 3.07
GKQAPRKKAQGKTAQNRKLTDFYP | 2.81
GKQAPRKKAQGKTDQNRKLTDFYP | 3.06

Variant | protein stability index
GKQAPRKKAQGKTFQNRKLTDFYP | 1.92
GKQAPRKKAQGKTIQNRKLTDFYP | 3.11
GKQAPRKKAQGKTGQNRKLTDFYP | 2.52
GKQAPRKKAQGKTWQNRKLTDFYP | 3.37
GKQAPRKKAQGKTRQNRKLTDFYP | 1.85
GKQAPRKKAQGKTPQNRKLTDFYP | 4.36
GKQAPRKKAQGKTHQNRKLTDFYP | 1.57
GKQAPRKKAQGKTYQNRKLTDFYP | 3.4
GKQAPRKKAQGKTCQNRKLTDFYP | 2.37
GKQAPRKKAQGKTMQNRKLTDFYP | 3.64
GKQAPRKKAQGKTTQNRKLTDFYP | 3.4
GKQAPRKKAQGKTEQNRKLTDFYP | 3.41
GKQAPRKKAQGKTQQNKKLTDFYP | 2.59
GKQAPRKKAQGKTQQNNKLTDFYP | 3.34
GKQAPRKKAQGKTQQNEKLTDFYP | 3.13
GKQAPRKKAQGKTQQNLKLTDFYP | 2.32
GKQAPRKKAQGKTQQNGKLTDFYP | 3.91
GKQAPRKKAQGKTQQNFKLTDFYP | 2.88
GKQAPRKKAQGKTQQNDKLTDFYP | 3.8
GKQAPRKKAQGKTQQNHKLTDFYP | 2.88
GKQAPRKKAQGKTQQNIKLTDFYP | 3.68
GKQAPRKKAQGKTQQNCKLTDFYP | 2.96
GKQAPRKKAQGKTQQNPKLTDFYP | 3.06
GKQAPRKKAQGKTQQNTKLTDFYP | 2.61

Variant | protein stability index
GKQAPRKKAQLKTQQNRKLTDFYP | 3.27
GKQAPRKKAQMKTQQNRKLTDFYP | 3.29
GKQAPRKKAQAKTQQNRKLTDFYP | 4.17
GKQAPRKKAQNKTQQNRKLTDFYP | 3.6
GKQAPRKKAQPKTQQNRKLTDFYP | 3.46
GKQAPRKKAQKKTQQNRKLTDFYP | 2.91
GKQAPRKKAQRKTQQNRKLTDFYP | 2.66
GKQAPRKKAQTKTQQNRKLTDFYP | 2.84
GKQAPRKKAQYKTQQNRKLTDFYP | 3.21
GKQAPRKKAQHKTQQNRKLTDFYP | 3.56
GKQAPRKKAQEKTQQNRKLTDFYP | 3.42
GKQAPRKKAQIKTQQNRKLTDFYP | 3.73
GKQAPRKKAQDKTQQNRKLTDFYP | 2.94
GKQAPRKKAQSKTQQNRKLTDFYP | 3.55
GKQAPRKKAQGKVQQNRKLTDFYP | 3.39
GKQAPRKKAQGKNQQNRKLTDFYP | 2.87
GKQAPRKKAQGKQQQNRKLTDFYP | 3.93
GKQAPRKKAQGKDQQNRKLTDFYP | 3.09
GKQAPRKKAQGKGQQNRKLTDFYP | 3.35
GKQAPRKKAQGKIQQNRKLTDFYP | 3.28
GKQAPRKKAQGKAQQNRKLTDFYP | 3.48
GKQAPRKKAQGKFQQNRKLTDFYP | 2.37
GKQAPRKKAQGKMQQNRKLTDFYP | 2.16
GKQAPRKKAQGKEQQNRKLTDFYP | 3.83

Variant | protein stability index
GKQAPRKKAQGKSQQNRKLTDFYP | 2.04
GKQAPRKKAQGKRQQNRKLTDFYP | 3.82
GKQAPRKKAQGTTQQNRKLTDFYP | 3.32
GKQAPRKKAQGNTQQNRKLTDFYP | 3.07
GKQAPRKKAQGCTQQNRKLTDFYP | 2.19
GKQAPRKKAQGWTQQNRKLTDFYP | 3.08
GKQAPRKKAQGITQQNRKLTDFYP | 2.85
GKQAPRKKAQGDTQQNRKLTDFYP | 2.51
GKQAPRKKAQGLTQQNRKLTDFYP | 3.21
GKQAPRKKAQGPTQQNRKLTDFYP | 2.51
GKQAPRKKAQGGTQQNRKLTDFYP | 3.37
GKQAPRKKAQGATQQNRKLTDFYP | 2.76
GKQAPRKKAQGETQQNRKLTDFYP | 3.66
GKQAPRKKAQGRTQQNRKLTDFYP | 2.99
GKQAPRKKAQGFTQQNRKLTDFYP | 4.09
GKQAPRKKAQGYTQQNRKLTDFYP | 3.42
GKQAPRKKAQGKTQCNRKLTDFYP | 2.15
GKQAPRKKAQGKTQLNRKLTDFYP | 2.76
GKQAPRKKAQGKTQSNRKLTDFYP | 3.26
GKQAPRKKAQGKTQHNRKLTDFYP | 3.76
GKQAPRKKAQGKTQDNRKLTDFYP | 3.71
GKQAPRKKAQGKTQNNRKLTDFYP | 3.07
